# In publication PMC2959089, “The intriguing Cyclophilin A-HIV-1 Vpr interaction: prolyl cis/trans isomerisation catalysis and specific binding” (BMC Structural Biology, 2010):
# Target: T1, recombinant human Cyclophilin A (CypA) (human, UniProt P62937 1-165)
# T1 construct: also called human peptidyl prolyl isomerase CypA; source: E. coli BL21(DE3), pET11c, purified (DEAE-Sepharose flow-through, MonoS cation exchange)
# Experiment: SPR
# Details: both partners purified
# T1 sequence (P62937 whole entry): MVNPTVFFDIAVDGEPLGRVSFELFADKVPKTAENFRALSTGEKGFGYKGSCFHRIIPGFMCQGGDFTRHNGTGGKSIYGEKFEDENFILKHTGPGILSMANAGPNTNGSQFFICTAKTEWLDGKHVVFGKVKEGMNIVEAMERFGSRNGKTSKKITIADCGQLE
Binder,Kd,"ka1 (two-state model, association)","ka2 (two-state model, forward rate)","kd1 (two-state model, dissociation)","kd2 (two-state model, backward rate)"
RHFPRIW (source: synthetic peptide) [synthetic HIV-1 Vpr peptide sVpr^32-38],487 µM,924 M⁻¹ s⁻¹,0.0011 s⁻¹,0.67 s⁻¹,0.0023 s⁻¹
ELKSEAVRHFPRIWLH (source: synthetic peptide) [synthetic HIV-1 Vpr peptide sVpr^25-40],404 µM,2000 M⁻¹ s⁻¹,0.0028 s⁻¹,0.942 s⁻¹,0.0173 s⁻¹
AVRHFPRIWLH (source: synthetic peptide) [synthetic HIV-1 Vpr peptide sVpr^30-40],167 µM,2470 M⁻¹ s⁻¹,0.00145 s⁻¹,0.527 s⁻¹,0.0053 s⁻¹
ELLEELKSEAVRHFPRIWLH (source: synthetic peptide) [synthetic HIV-1 Vpr peptide sVpr^21-40],201 µM,466 M⁻¹ s⁻¹,0.0084 s⁻¹,0.164 s⁻¹,0.011 s⁻¹
HFPRI (source: synthetic peptide) [synthetic HIV-1 Vpr peptide sVpr^33-37],3570 µM,120 M⁻¹ s⁻¹,0.00138 s⁻¹,0.66 s⁻¹,0.0025 s⁻¹
